# According to paper PMC2213112:
# Where two headings read alike, the source gives them in different places.
# How the values were obtained:
# [1] = molecular target: P-selectin expressed on Chinese hamster ovary cells (CHO-P) (UniProt P16109); assay: flow cytometry on cells
# [2] = molecular target: P-selectin expressed on Chinese hamster ovary cells (CHO-P) (UniProt P16109); assay: flow cytometry on cells; remark: listed apart in the source
# [3] = molecular target: P-selectin expressed on Chinese hamster ovary cells (CHO-P) (UniProt P16109); assay: flow cytometry on cells; remark: listed apart in the source
# [4] = molecular target: Recombinant human P-selectin (recombinant ectodomain of P-selectin) (human) (UniProt P16109); assay: SPR
increase of binding over the sample without calcium or magnesium [1] [%],increase of binding over the sample without calcium or magnesium [2] [%],increase of binding over the sample without calcium or magnesium [3] [%],mean fluorescence intensity (MFI) of C3b-FITC [3],Kd [4] [nM],Substance
63,55,33,476,–,FITC-conjugated purified C3b (from UniProt P01024 749-1663; P01024 749-1663) (natural protein)
–,–,–,–,1000,purified C3b (from UniProt P01024 749-1663; P01024 749-1663) (natural protein)
